Assay results taken from publication PMC6509359.
Several values for one entry are separate records, joined by “and”; a condition that tells them apart may be missing. Equal entries are not always repeated.

T1: Human USP25 (1-1055) (human), Q9UHP3
T1 chain: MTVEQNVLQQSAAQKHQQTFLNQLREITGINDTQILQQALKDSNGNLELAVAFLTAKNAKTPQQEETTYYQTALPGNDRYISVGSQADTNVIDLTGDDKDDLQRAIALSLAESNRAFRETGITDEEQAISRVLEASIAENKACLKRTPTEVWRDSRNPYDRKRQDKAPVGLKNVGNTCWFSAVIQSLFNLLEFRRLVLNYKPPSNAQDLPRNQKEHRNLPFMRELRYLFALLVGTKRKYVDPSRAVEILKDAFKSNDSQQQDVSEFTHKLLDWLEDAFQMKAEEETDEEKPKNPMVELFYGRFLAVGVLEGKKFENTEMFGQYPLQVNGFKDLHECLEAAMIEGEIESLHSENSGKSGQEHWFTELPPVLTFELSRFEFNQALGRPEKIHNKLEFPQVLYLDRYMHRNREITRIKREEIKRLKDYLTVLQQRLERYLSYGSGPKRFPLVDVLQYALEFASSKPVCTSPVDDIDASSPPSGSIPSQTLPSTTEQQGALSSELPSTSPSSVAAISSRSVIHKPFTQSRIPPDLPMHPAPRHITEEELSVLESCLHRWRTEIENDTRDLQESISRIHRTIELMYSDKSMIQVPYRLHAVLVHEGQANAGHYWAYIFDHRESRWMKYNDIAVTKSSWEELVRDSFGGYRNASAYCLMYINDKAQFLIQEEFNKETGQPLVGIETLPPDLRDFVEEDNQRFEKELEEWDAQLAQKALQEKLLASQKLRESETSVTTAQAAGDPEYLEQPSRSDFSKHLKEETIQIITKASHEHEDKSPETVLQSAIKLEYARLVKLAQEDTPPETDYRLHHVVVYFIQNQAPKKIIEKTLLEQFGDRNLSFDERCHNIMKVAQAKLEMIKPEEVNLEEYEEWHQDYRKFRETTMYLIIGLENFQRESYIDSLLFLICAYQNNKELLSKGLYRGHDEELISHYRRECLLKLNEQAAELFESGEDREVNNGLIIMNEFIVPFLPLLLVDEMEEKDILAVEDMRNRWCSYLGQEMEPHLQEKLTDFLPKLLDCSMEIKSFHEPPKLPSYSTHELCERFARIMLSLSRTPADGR

T2: endogenous USP25 (human (endogenous in HEK293)), Q9UHP3
T2 chain: T1 chain

B1: Human USP25 (1-1055), Q9UHP3 1-1055 (enzyme)
chain: T1 chain
B2: endogenous USP25, Q9UHP3 1-1055 (enzyme)
chain: T1 chain

Key:
Conditions in all cases: remark: other sources report otherwise
[1] = biological target: T1, Human USP25 (1-1055) (human), Q9UHP3; experiment: SEC-MALS; five-fold dilution series (1 mg/mL, 0.2 mg/mL, 0.04 mg/mL sample concentration)
[2] = biological target: T1, Human USP25 (1-1055) (human), Q9UHP3; experiment: not stated; oligomeric states of purified orthologs and of full-length proteins, Figures S7A, S7B and S3J
[3] = biological target: T1, Human USP25 (1-1055) (human), Q9UHP3; experiment: SEC + native gel or EMSA; recombinant full-length USP25 on HiLoad 16/600 Superdex 200 pg in buffer E immediately before native PAGE, Ponceau staining
[4] = biological target: T2, endogenous USP25 (human (endogenous in …)); experiment: native gel or EMSA; native PAGE of lysate of untreated HEK293 cells, immunoblotting for the endogenous protein; recombinant USP25 tetramer and dimer fractions as size standard

Row | Binder | stoichiometry N [1] | stoichiometry N [2] | stoichiometry N [3] | stoichiometry N [4]
1 | B1 | 4 and 2 | 2 and 4 | 4 and 2 | 
2 | B2 |  |  |  | 2 and 4
